# Test results: the DeepSol protein solubility set
# Test: soluble on expression in E. coli; label from the status in PepcDB or PDB records
row,Sequence,soluble on expression in E. coli
1,MNNVIIIGGGIAGLCAAISLQKIGLDVKVYDKNTEPTVAGAGIIIAPNAMQALELYGISKKIKKFGNESDGFNLVSKKGTTFNKLIIPTCYPKMYSIHRKDLHQLLLSELKEDTVKWGKECVKIEQNEENALKIVFQDGSEALGNILIAADGIHSIVRKQVTQGDNYRYAGYTCWRGVTPTKNLSLTNDFIETWGTNGRFGIVPLPNNEVYWYALINAKARDPKYKAYTTTDLYNHFKTYHNPIPSILQNASDIDMIHRDIIDITPMKQFFDKRIVFIGDAAHALTPNLGQGACQAIEDAIILAECIKNNAYYRQAFTEFEQKRRDRIEKISNTAWKVGKIAQIESKPLTIVRNKVMKRIPKWISERQAHELYRFHL,not soluble
2,SRMVLRGLLSEHPKKQMIPVIIYGAGRSGRQLLEAVKQMREYSAAAFVDDDPKLWHTVIYDLAVYQPDAIAFLIERYGVEKILLAIPGATQEQRRRIINKLEAYPCEVLTIPGMKDLMDGKISIGTLKKISVSDLLGRDSVAPDDRLMSADIEGKTVMVTGAGGSIGSELCRQIIRRRPEKLLLFELSEFALYAIEKELRETCIQKRLDTEILPFLGSVQNRTLLE,not soluble
3,YHPVFSAKIEQRLIERFGVKRALVALDQPNEEAQRLQVSGLVSNYLTSTLKNGMVVTVGQGRNVSSVAHHIGVITPRDCKFVCGIGGIHPRGGMYNADHICRQLAKKYGGTSETLYAPAYAENREQKMAFMQNATVKQTLDLARKADVALVGIGDMSENSYMVDLGWFTPDEVVQSRLKQGVVGDFAGYDFFDIHGNVANTVMSDRVIGLGIEEFRPIAEVIAIAAENSKPLALLGALRTGAIDVIATSVSNALTVLNLDEQMHGNAASES,not soluble
4,FHMNRVTGELGNRPLFSIADFTFYQGISCILGDNGVGKSTLFRSILQFQKYKGSITWKGSVLKKKKSLYRDLTGVVQEAEKQFIRVSLREELQLDGPDSERNQRIFQALRYFDLEQAVDKSPYQLSGGQQKILQLLTILTSKASVILLDEPFAGLDDRACHYFCKWIVEERNQGRSFLLISHRLDPLISVVDYWIEMTSQGLRHVKEVTITKPLTSQSSNTQGEVR,soluble
5,MGSDKIHHHHHHMNILFVSDLGSLGGGETSLFNLINEFASDNKKYNINNFLMCKTEGKLVDKCRGINVPCKVFDFKAAFKSFKFREISKAIKVIKEFLYSNNIDVIQCNEWSSAVLFSIISKVSSKNCKIIWICHGQWYKFNLIKRVLVNSLINRIISVSESVQNNLIINKLNKRKLLKQNLGIDLDRFRLGNGDKLREELHIQKEDKVLGVIARFQPIKGQKLVIEAARDIVEAGYKNYKFLLVGDSIFNNPKDSMYKNEVIEMIKEYKLQKNVLILGERNDVPDILALLDALIVPSINESFGMVVVEAFAAGCPVISTPCDGPMEIIKNGYSGVIINERNSENLKDAITDLMKEETDLEMMKINSMKESKKYDISNIAQFYCKQYALLCK,not soluble
6,MGSDKIHHHHHHMQSLSSHYHQLLGLPSNWEVENVNLSMSSRQVEIRLAFTGKQGECPICGQSCLIYDHAAEQRWRHLDTMQFETILVARLPRCQCKEHGVKTVQAPWAARHSRFTLLFESFAVELLLHCANIKAASRLLRLNWHTVNQIMRRAVQRGLVRRKTETVEYLGIDEKSFKAGQHDVTTLTDLGERRVLEVVEHRTTEATKELLASLNDSQQAGVKAVSVDMWKPFIHAVQELLPKADLVHDRFHISKYLNEAVDLVRRKECRQLDKAGDKRLIGSTYVWLRNPENMGEQQQAELGKLMDAEFRTGKAWSLKNMFRAFWQLGCADAGTFFFEYWSKRIDEVGLVPLTKVKELLQRHFGNVLTWFKHPITNAVSEGLNSKIQIVKASARGFHRFESYRIRILFYCGKLNMAIGS,not soluble
7,MKMNVESFNLDHTKVKAPYVRIADRKKGVNGDLIVKYDVRFKQPNRDHMDMPSLHSLEHLVAEIIRNHANYVVDWSPMGCQTGFYLTVLNHDNYTEILEVLEKTMQDVLKAKEVPASNEKQCGWAANHTLEGAQNLARAFLDKRAEWSEVGVGSHHHHHH,soluble
8,MSLVELQEIFDVSYGSKLDLNKMSSFNPTINFVGRSGKNNGVTASVDLLKNTKPYPAGLLTVALGGSVLSTFLQNKPFYTAQNVAVLNPKTEMTEQQKLFYCAAIFANAYRFSACGREANRTLRQLFVPSLDEIPSWVESVNLNPSAGVTEPKLKESLDLPVVRQSKRLDEIFTIQNGIAATKLKEFEQRQKDTVVYIRPASTQARTLRSYIARDSVDEKHIFPCHTLFTSTNGEGSHTYSYVSTCEFVANSDVAVLTPIQSDMPIEVKLYYAKCITANRYLFSYGRKPKGEKLKSIMLPYFDQQEDFDYICRFIHTLLFSNNLEGHHHHHH,soluble
9,MVKDLSDMSLKELWQLFPIFLVEHKEEWEDWYEEEKERLLHLLPSQSIKSISHIGSTAVPDIWAKNIVDILLEVPEKEDLQDFKKRLLDAGYLLMSEGEKRLSFNKGYTKDGFAEKVFHLHLRYQGDNDELYFRDYLREYPEVAKDYERLKLGLWEKYEHNRDAYTDAKSDFIRKYTQKAKKNDKGKDN,not soluble
10,MIKLFTDSDLDGIGCGLLAKLAFAEVNISFCSYRNLDERVVQFLQSDEANGAMLFITDLAVGKEVEQQLAERAARGGHVQVIDHHVTALHFNDYPWGQVVPVRDDGKKTCATSLFYDYLVREGKLAPNETLDGFVELVRQYDTWEWEENGNLQAKRLNDLLTIFGLDGFWETMSERLASREPFSLTETEELLLDMEEKKIQRYIRQKQKQLVQRWLGDYCIGVVFAERHLSELGNALSKRYPHLDLIALVNMGTKHIGFRTIHDDVNVAEFAQQFGGGGHPKASGCLIDDTTFPLFVVETFPLLPVYGDAEQNQLNKKDEAEGVFWTNHHGQWWLSRKTAQGWSVYADGGETHTFPEEIAGERWLKRQFAAGLAHDAAVLDFLSVRLGRDKDAIQADYKAAVKQYKQQTGIES,not soluble
11,MAHHHHHHMVLLWVDAEQYGVASSLGLSDDAKYPAFVIARGEDHFVHPSTEPVTAESIEKFIIEYSEKKLSPEIKSQPVPEIETVEGLTTVVGKTLDKYLSSGKDMLIEFFAPWCGHCKNLAPIYAKVAKEFESSDVIIAAMDATANQVDNSLFDVSGFPTIYFVPHGGKPIVYDGGRTFYEIYKFVHEHSSTLKDVPIPEEVKREEEKNGDYDDL,soluble
12,EGNITTVYFRSRDITAQKIAEKVLLDNERKLKTVYENSIQFLTVLDLDRKFIWFNKNARDRSPAVFGKDLIVGEVAESYIAKEYRTGFVENFNKAVAGETITYTRKYALNNAPFFLELSLAPVYNNDNTVVGVALTGIN,not soluble
13,MGHHHHHHSHMDGTRTSLDIEEYSDTEVQKNQVLTLEEWQDKWVNGKTAFHQEQGHQLLKKHLDTFLKGKSGLRVFFPLCGKAVEMKWFADRGHSVVGVEISELGIQEFFTEQNLSYSEEPITEIPGTKVFKSSSGNISLYCCSIFDLPRTNIGKFDMIWDRGALVAINPGDRKCYADTMFSLLGKKFQYLLCVLSYDPTKHPGPPFYVPHAEIERLFGKICNIRRLEKVDAFEERHKSWGIDCLFEKLYLLTEK,soluble
14,MAHHHHHHMRVALIFGITGQDGSYLSELLLEKNYHVHGVIRRCSSFNTKRIDHIFDKLILHYGDLLDSSNICSLICEIKPNEIYNLAAQSHVKVSFEMPEYTTEATALGTLRILEGIRISKVKNIKFYNASTSELFGKVQCPIQNENTPFYPVSPYAIAKLYAHYITINYRESYNMFCINGILFNHESPRRGETFVTRKITRGIAKIQKKLETSIILGNIDTYRDWGHAKDYVYAMYLMLQQNEADDFVICSNEQHSVREFCEISFSFVNIHIKWIGKGIQEIGVDQNNNVLIKKHEKYFRNCEVNTLLGDCSKAKNILKWEPTYTFTQLVYEMLKCDMQDYNLSMDDYDTCMKKYDTYKMGKKQ,not soluble
15,MRLTSKGRYAVTAMLDVALNSEAGPVPLADISERQGISLSYLEQLFSRLRKNGLVSSVRGPGGGYLLGKDASSIAVGEVISAVDESVDATRCQGKGGCQGGDKCLTHALWRDLSDRLTGFLNNITLGELVNNQEVLDVSGRQHTHDAPRTRTQDAIDVKLRA,soluble
16,MKLLAITSCPNGIAHTYMAAENLQKAADRLGVSIKVETQGGIGVENKLTEEEIREADAIIIAADRSVNKDRFIGKKLLSVGVQDGIRKPEELIQKALNGDIPVY,not soluble
17,MGSDKIHHHHHHEVPIGFDTDELSFDMSLVLLTGDMQTKASDPNYTYATTEELTIQNCHVAVFDKDGKRIYFKNFYSKDLGEMKTIGNLSGYELQLEGVRTFGKEDKKVSVLVVANANNANNSPFDNLTTYDGVDNSYTAKTIAKGPVTASLLVKIGKSETTLKYNQDNAPVTVSLIQLSAKIEYTGVYKKENGELLEGFSLTKVAGLNASSKITIFNTSAVENGAFSDLAYPTTKPVTFYTYEISDAFKEVILSVQSGVEPKEYPFPANKFIKGNYYRIKGLKSSTEIEWVLENVEDKEVTLDPFE,not soluble
18,MEFTLTREKQMIKEMVRDFAEKEIAPKAVYYDKTAEFPYETFQKMGELGLLGIPFPEEYGGSGGDTVSYALAVEEIGRACGGTGLSYAATISLGASPIYYFGTEEQKQKYLVPMASGKTLGAFGLTEPNAGSDAGGTQTKAILDGDEYVISGEKCWITNAEYANTIIVTAVNGIEENGRKRISAFIVPTTSEGLTISSPYDKMGVRASNTCEIVLDGVRVPKENILGDVNKGFKQFLYTLDGGRISIAVLAVGIAQSAFERALQYAKERQQFGKAISNFQAIQFKLADMATEVELARNLVHKAAWLKDNDKPFGKEAAMAKLFASEAASRIANQAVQIHGGYGYMREYEVERHIRDAKLLEIGEGTSEIQRLVIARHLGCR,not soluble
19,MIVLRDVAGSDESMYQALQSDLDLTDYLSRFCPYNSSVANYDTSKVCWFIIEEDTNCIGSIWLERDAQEPDTVILGIFISGKNSRGRGIGSYAIREAIRISKQRMPFRYVRLNVRRNNLRAIRCYEKCGFKVCGEGQKNAKNGAIIDYYRMIMKVED,soluble
20,SQVARWLGLDIPSPPIGSLFGVEIPEETGTKLEERVVDASMLSHGDLLMNLSLRDEELVILVRRGEGYRVPKGRMHLQVGDVLLIVSEKNLSQTLTSGDPENHPGLLQRLKHRLLRR,not soluble
21,MSENSIRLTQYSHGAGCGCKISPKVLETILHSEQAKFVDPNLLVGNETRDDAAVYDLGNGTSVISTTDFFMPIVDNPFDFGRIAATNAISDIFAMGGKPIMAIAILGWPINKLSPEIAREVTEGGRYACRQAGIALAGGHSIDAPEPIFGLAVTGIVPTERVKKNSTAQAGCKLFLTKPLGIGVLTTAEKKSLLKPEHQGLATEVMCRMNIAGASFANIEGVKAMTDVTGFGLLGHLSEMCQGAGVQARVDYDAIPKLPGVEEYIKLGAVPGGTERNFASYGHLMGEMPREVRDLLCDPQTSGGLLLAVMPEAENEVKATAAEFGIELTAIGELVPARGGRAMVEIR,not soluble
22,RSFTAFLLFLPVGFLYPLAKKKELALQRQEELRRQFKEAVLILSSSLGAGYSVENAFAGSLRELEELYGREGMITKEFSYIAHQLRMNRTVETLLAEFADRSGLEEIKNFSDIFAVSKRSRGELVSVVNHTVHVISDRLQVREEILTMTAEKQFEQKIMNLVPYCIVIYIEFSSPGFFRQMYG,not soluble
23,SNAFHPVYSVQLEQKLVEKFNLKRALISLDQPNTNEQRKQVAALVSSYLNNNLQEGMAVAVGQGQNVAAVADHAGIVTQRNARFVSAIGGTHRSGDIINADHICRRLAKKYGGSSETLYAPAYVNDPSLRSAFMEHATIKETLSQARKAEFALVGIGDMDENSHMVKLGFFTPKEFVEARLNDGIVGDIGGFDFFKLDGTDADTLMRGRVIGLEMEDLRQIPNVVAMASESRKALSIMGALRTGVIDVLATSVSCAMALLNLAENEE,soluble
